Reference: publication PMC11239673, “Structural basis for the bi-specificity of USP25 and USP28 inhibitors” (EMBO Reports, 2024)
Several values for one entry are separate records, joined by “and”; a condition that tells them apart may be missing. Equal values may be shown once.

Tests used:
Settings in all cases: remark: other sources report otherwise
[1] = target: T1, full-length USP25 (USP25 1-1055) (human), Q9UHP3; assay: SEC-MALS; tetramer to dimers; 20 µM USP25fl with 60 µM AZ1, 45 min incubation at 4 °C; Superose 6 10/300 GL; 20 mM HEPES pH 8.0, 150 mM NaCl, 1 mM TCEP
T1 chain: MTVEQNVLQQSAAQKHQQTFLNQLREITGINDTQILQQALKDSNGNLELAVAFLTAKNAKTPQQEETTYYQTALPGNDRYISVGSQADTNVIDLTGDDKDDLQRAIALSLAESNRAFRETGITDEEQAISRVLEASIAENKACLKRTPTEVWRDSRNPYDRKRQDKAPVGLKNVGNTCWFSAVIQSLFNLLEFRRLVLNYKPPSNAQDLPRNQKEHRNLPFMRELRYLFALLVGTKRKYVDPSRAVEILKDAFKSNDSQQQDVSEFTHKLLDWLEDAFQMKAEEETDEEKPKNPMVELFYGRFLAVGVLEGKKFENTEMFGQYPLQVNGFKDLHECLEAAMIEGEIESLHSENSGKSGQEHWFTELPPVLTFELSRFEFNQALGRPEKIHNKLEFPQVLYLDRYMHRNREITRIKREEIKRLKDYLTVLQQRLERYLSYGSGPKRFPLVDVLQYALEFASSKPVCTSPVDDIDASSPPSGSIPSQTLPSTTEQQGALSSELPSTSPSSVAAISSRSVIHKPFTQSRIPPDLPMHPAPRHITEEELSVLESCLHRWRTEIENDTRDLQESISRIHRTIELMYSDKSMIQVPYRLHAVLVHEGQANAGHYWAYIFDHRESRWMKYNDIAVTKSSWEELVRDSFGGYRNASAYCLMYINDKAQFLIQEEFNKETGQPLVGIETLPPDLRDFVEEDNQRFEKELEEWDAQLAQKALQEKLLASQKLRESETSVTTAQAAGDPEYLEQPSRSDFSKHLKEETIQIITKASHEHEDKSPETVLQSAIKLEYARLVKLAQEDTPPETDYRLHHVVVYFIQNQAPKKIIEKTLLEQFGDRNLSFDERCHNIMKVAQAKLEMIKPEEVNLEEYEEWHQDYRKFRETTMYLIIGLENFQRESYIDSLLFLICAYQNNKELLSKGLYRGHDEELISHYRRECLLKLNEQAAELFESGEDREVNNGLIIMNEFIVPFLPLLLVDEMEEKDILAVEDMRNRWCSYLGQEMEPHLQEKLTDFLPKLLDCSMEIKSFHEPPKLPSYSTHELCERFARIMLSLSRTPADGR

[2] = target: T1, full-length USP25 (USP25 1-1055) …; assay: SEC-MALS; tetramer to dimers; 10 µM USP25fl with 5, 10 or 20 µM racemic FT206, 45 min incubation at 4 °C; Superose 6 10/300 GL; 20 mM HEPES pH 8.0, 150 mM NaCl, 1 mM TCEP
[3] = target: T1, full-length USP25 (USP25 1-1055) …; assay: SEC-MALS; tetramer to dimers; 20 µM USP25fl with 60 µM VSM, 45 min incubation at 4 °C; Superose 6 10/300 GL; 20 mM HEPES pH 8.0, 150 mM NaCl, 1 mM TCEP
[4] = target: T1, full-length USP25 (USP25 1-1055) …; assay: SEC-MALS; tetramer to dimers; 10 µM USP25fl with 5, 10 or 20 µM AZ1, 45 min incubation at 4 °C; Superose 6 10/300 GL; 20 mM HEPES pH 8.0, 150 mM NaCl, 1 mM TCEP
[5] = target: T1, full-length USP25 (USP25 1-1055) …; assay: SEC-MALS; tetramer to dimers; 10 µM USP25fl with DMSO control, 45 min incubation at 4 °C; Superose 6 10/300 GL; 20 mM HEPES pH 8.0, 150 mM NaCl, 1 mM TCEP
[6] = target: T1, full-length USP25 (USP25 1-1055) …; assay: SEC-MALS; tetramer to dimers; 20 µM USP25fl with 60 µM racemic FT206, 45 min incubation at 4 °C; Superose 6 10/300 GL; 20 mM HEPES pH 8.0, 150 mM NaCl, 1 mM TCEP
[7] = target: T1, full-length USP25 (USP25 1-1055) …; assay: SEC-MALS; tetramer to dimers; 20 µM USP25fl with DMSO control, 45 min incubation at 4 °C; Superose 6 10/300 GL; 20 mM HEPES pH 8.0, 150 mM NaCl, 1 mM TCEP

percent dimers (with 60 µM AZ1) [1]: 80.8%
percent dimers (with 10 µM FT206) [2]: 50%
percent dimers (with 20 µM FT206) [2]: 76%
percent dimers (with 60 µM VSM) [3]: 75%
percent dimers (with 20 µM AZ1) [4]: 46%
percent dimers [5]: 25%
percent dimers (DMSO control of the AZ1 series) [5]: 23%
percent dimers (DMSO control of the FT206 series) [5]: 28%
percent tetramers [5]: 75%
stoichiometry N [5]: 4 and 2
percent dimers (with 60 µM FT206) [6]: 77.7%
percent dimers (DMSO control) [7]: 26.2%
B1: full-length USP25 (USP25 1-1055), Q9UHP3 1-1055 (enzyme)
chain: MTVEQNVLQQSAAQKHQQTFLNQLREITGINDTQILQQALKDSNGNLELAVAFLTAKNAKTPQQEETTYYQTALPGNDRYISVGSQADTNVIDLTGDDKDDLQRAIALSLAESNRAFRETGITDEEQAISRVLEASIAENKACLKRTPTEVWRDSRNPYDRKRQDKAPVGLKNVGNTCWFSAVIQSLFNLLEFRRLVLNYKPPSNAQDLPRNQKEHRNLPFMRELRYLFALLVGTKRKYVDPSRAVEILKDAFKSNDSQQQDVSEFTHKLLDWLEDAFQMKAEEETDEEKPKNPMVELFYGRFLAVGVLEGKKFENTEMFGQYPLQVNGFKDLHECLEAAMIEGEIESLHSENSGKSGQEHWFTELPPVLTFELSRFEFNQALGRPEKIHNKLEFPQVLYLDRYMHRNREITRIKREEIKRLKDYLTVLQQRLERYLSYGSGPKRFPLVDVLQYALEFASSKPVCTSPVDDIDASSPPSGSIPSQTLPSTTEQQGALSSELPSTSPSSVAAISSRSVIHKPFTQSRIPPDLPMHPAPRHITEEELSVLESCLHRWRTEIENDTRDLQESISRIHRTIELMYSDKSMIQVPYRLHAVLVHEGQANAGHYWAYIFDHRESRWMKYNDIAVTKSSWEELVRDSFGGYRNASAYCLMYINDKAQFLIQEEFNKETGQPLVGIETLPPDLRDFVEEDNQRFEKELEEWDAQLAQKALQEKLLASQKLRESETSVTTAQAAGDPEYLEQPSRSDFSKHLKEETIQIITKASHEHEDKSPETVLQSAIKLEYARLVKLAQEDTPPETDYRLHHVVVYFIQNQAPKKIIEKTLLEQFGDRNLSFDERCHNIMKVAQAKLEMIKPEEVNLEEYEEWHQDYRKFRETTMYLIIGLENFQRESYIDSLLFLICAYQNNKELLSKGLYRGHDEELISHYRRECLLKLNEQAAELFESGEDREVNNGLIIMNEFIVPFLPLLLVDEMEEKDILAVEDMRNRWCSYLGQEMEPHLQEKLTDFLPKLLDCSMEIKSFHEPPKLPSYSTHELCERFARIMLSLSRTPADGR
